Assay results published in the supplement of paper PMC9233669.
Fewer inactive variants are shown than the library holds.

Legend:
[1] = tested on: biotinyl-Trp-oxazolone; experiment: self-aminoacylation, catalytic enhancement (BWO) (fold over background); higher = more active; k-Seq, kA / k0A0; sequences stand for … in GGGAAUGGAUCCACAUCUACGAAUUC…UUCACUGCAGACUUGACGAAGCUG
In short: (§1)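 The uncatalyzed rate is the low-activity peak of a bimodal Gaussian fit, and catalytic enhancement is median kA divided by it. The kA values came from pseudo-first-order fits, with 1000 bootstraps, of per-sequence fraction reacted measured by streptavidin capture, triplicate qPCR and Illumina sequencing. Mutagenized RNA pools with a 21-nt variable region (0.43 μM) were reacted with each biotinyl-aminoacyl-oxazolone at 2–1250 μM in 50 μL HEPES/NaCl/KCl/MgCl2/CaCl2 buffer with 5% acetonitrile, pH 6.9–7.0, for 90 minutes at room temperature.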

[2] = tested on: biotinyl-Leu-oxazolone; experiment: self-aminoacylation, catalytic enhancement (BLO) (fold over background); higher = more active; k-Seq, kA / k0A0; sequences stand for … in GGGAAUGGAUCCACAUCUACGAAUUC…UUCACUGCAGACUUGACGAAGCUG
In short: as §1

[3] = tested on: biotinyl-Met-oxazolone; experiment: self-aminoacylation, catalytic enhancement (BMO) (fold over background); higher = more active; k-Seq, kA / k0A0; sequences stand for … in GGGAAUGGAUCCACAUCUACGAAUUC…UUCACUGCAGACUUGACGAAGCUG
In short: as §1

[4] = tested on: biotinyl-Phe-oxazolone; experiment: self-aminoacylation, catalytic enhancement (BFO) (fold over background); higher = more active; k-Seq, kA / k0A0; sequences stand for … in GGGAAUGGAUCCACAUCUACGAAUUC…UUCACUGCAGACUUGACGAAGCUG
In short: as §1

| Sequence | self-aminoacylation [1] | self-aminoacylation [2] | self-aminoacylation [3] | self-aminoacylation [4] |
| --- | --- | --- | --- | --- |
| AUUUCCCUGGUCAUCGAGCGA [Fam2.1 aminoacylation ribozyme variant] | 2.59 | 2.18 | 2.25 |  |
| AUUACCCUGGUCAACGAGUGU [Fam2.1 aminoacylation ribozyme variant] | 3.43 | 3 | 2.91 | 6.18 |
| CCUCGCUUCAAGCAAUCGGUC [Fam1B.1 aminoacylation ribozyme variant] | 36 | 2.24 |  | 81.2 |
| CUACGUCAAACAAUCGCUCUG [Fam1A.1 aminoacylation ribozyme variant] |  | 2.07 |  | 3.08 |
| AUUACCCUUGUCAUCGUGUGA [Fam2.1 aminoacylation ribozyme variant] | 2.88 | 2.69 | 2.59 | 5.78 |
| CCCCACUUCAAGCAAUCGGUA [Fam1B.1 aminoacylation ribozyme variant] | 3.44 | 2.71 |  | 11.8 |
| CUACCUCAAACAAUCGGGCUG [Fam1A.1 aminoacylation ribozyme variant] |  | 2.4 | 2.02 | 2.01 |
| CCACGCUUCAAACAAUCGGUC [Fam1B.1 aminoacylation ribozyme variant] | 45.3 | 2.17 |  | 92.8 |
| AUUCACCUAGGUCAUCGGCAG [Fam2.2 aminoacylation ribozyme variant] |  | 2.03 |  |  |
| AUUCACCUACGUCAUCUGGUG [Fam2.2 aminoacylation ribozyme variant] |  | 2.24 | 2.09 | 6.74 |
| AUUCACCUAGUUCAUAGGGUG [Fam2.2 aminoacylation ribozyme variant] | 3.14 | 3.8 | 3.63 | 15.4 |
| AUUGCCCUGGUCAUCGUGUGA [Fam2.1 aminoacylation ribozyme variant] | 3.2 | 3.19 | 2.93 | 24 |
| AUACACCUAGGUCAUCGGCUG [Fam2.2 aminoacylation ribozyme variant] |  | 2.03 | 2.13 | 4 |
| CGCCACUUCAAGCAAUCGGUC [Fam1B.1 aminoacylation ribozyme variant] | 24.2 | 2.26 |  | 37.1 |
| AAAUUUGCUAAUUGUCGCAAG [Fam3.1 aminoacylation ribozyme variant] |  |  | 2.03 |  |
| GUUCACCUAGGUCAUAGGGUG [Fam2.2 aminoacylation ribozyme variant] | 2.22 | 2.08 |  | 2.11 |
| ACGUUUGCUAAAAGUCGCAAG [Fam3.1 aminoacylation ribozyme variant] | 3.43 |  | 2.09 | 3.93 |
| CCACACUUCAAGCCAUCGCUC [Fam1B.1 aminoacylation ribozyme variant] | 2.72 | 2.19 |  |  |
| CCACACUUCAAGCAAUCGGCU [Fam1B.1 aminoacylation ribozyme variant] | 2.2 | 2.08 |  |  |

| Sequence | self-aminoacylation [1] | self-aminoacylation [2] | self-aminoacylation [3] | self-aminoacylation [4] |
| --- | --- | --- | --- | --- |
| AAGCUUGCUAAUAGUCGCAAA [Fam3.1 aminoacylation ribozyme variant] | 2.2 |  | 2.21 | 2.75 |
| AAGUGUGCUAACAGUCGCAAG [Fam3.1 aminoacylation ribozyme variant] | 4.85 |  |  | 12.8 |
| CCAUGCUUCAAGCAAUCGGUC [Fam1B.1 aminoacylation ribozyme variant] | 39 | 2.66 |  | 76.2 |
| UCACACUUCAAGUAAUCGGUC [Fam1B.1 aminoacylation ribozyme variant] | 7.97 |  |  | 12.7 |
| CUACUUCAAUCAAUCGGCCUG [Fam1A.1 aminoacylation ribozyme variant] | 30.3 | 2.56 |  | 34.9 |
| CUCCUUCAAACAAUCGGUCUA [Fam1A.1 aminoacylation ribozyme variant] | 9.25 |  |  | 18.5 |
| AUUGACCUAGCUCAUCGGGUG [Fam2.2 aminoacylation ribozyme variant] | 2.71 |  | 2.14 | 11 |
| UUAUUUCAAACAAUCGGUCUG [Fam1A.1 aminoacylation ribozyme variant] | 3.27 |  |  | 5.5 |
| CCACUCUUCAAGCAAUCGGUC [Fam1B.1 aminoacylation ribozyme variant] | 15.1 |  |  | 32.1 |
| AAAGUUGCUAAUAGUCGCAAG [Fam3.1 aminoacylation ribozyme variant] |  |  | 2.06 | 3.77 |
| AAGUUUGCGAAUAGUCGCAAU [Fam3.1 aminoacylation ribozyme variant] |  |  | 2.13 | 6.18 |
| AGGUUUGCUAAAAGUCGCAAG [Fam3.1 aminoacylation ribozyme variant] | 4.38 |  | 2.13 | 10.5 |
| AUUCACCCAGGUCGUCGGGUG [Fam2.2 aminoacylation ribozyme variant] |  | 2.84 |  | 9.93 |
| AUUAACCUAGGACAUCGGGUG [Fam2.2 aminoacylation ribozyme variant] | 2.82 | 3.2 |  | 14.2 |
| AAGUUCGCGAAUAGUCGCAAG [Fam3.1 aminoacylation ribozyme variant] | 3.3 |  | 2.31 | 5.66 |
| AUACUUCAAAAAAUCGGUCUG [Fam1A.1 aminoacylation ribozyme variant] | 3.25 |  |  | 4.26 |
| AAGUUUGCUAAUAGUCUCAAG [Fam3.1 aminoacylation ribozyme variant] | 4.26 |  |  | 15.4 |
| CCAGACUUCAAGAAAUCGGUC [Fam1B.1 aminoacylation ribozyme variant] | 6.84 |  |  | 8.29 |
| AAGUUAGCUAAUAGGCGCAAG [Fam3.1 aminoacylation ribozyme variant] | 2.47 |  |  | 2.32 |

| Sequence | self-aminoacylation [1] | self-aminoacylation [2] | self-aminoacylation [3] | self-aminoacylation [4] |
| --- | --- | --- | --- | --- |
| AAUGUUGCUAAUAGUCGCAAG [Fam3.1 aminoacylation ribozyme variant] | 2.02 |  |  | 2.37 |
| GUGUUUGCUAAUAGUCGCAAG [Fam3.1 aminoacylation ribozyme variant] | 4.15 |  |  | 5.9 |
| CGACUUCAAACAAUCGGACUG [Fam1A.1 aminoacylation ribozyme variant] | 3.53 |  |  | 6.95 |
| AAGUUUGCGAAUAGUCGCGAG [Fam3.1 aminoacylation ribozyme variant] | 2.14 |  |  | 8.44 |
| CUUCUUCAAACAAUCGGUUUG [Fam1A.1 aminoacylation ribozyme variant] | 13.8 |  |  | 20.7 |
| AUACUUCAAACAAUCGGCCUG [Fam1A.1 aminoacylation ribozyme variant] | 15.5 | 2.02 |  | 20.7 |
| CCACGCUUCAAGUAAUCGGUC [Fam1B.1 aminoacylation ribozyme variant] | 12.9 |  |  | 18.1 |
| CCCCUCUUCAAGCAAUCGGUC [Fam1B.1 aminoacylation ribozyme variant] | 31.2 | 2.09 |  | 49.1 |
| CUACUUCAAACAAUCAGUCGG [Fam1A.1 aminoacylation ribozyme variant] | 5.8 |  |  | 11.2 |
| AUUCACCCAGGUCAUAGGGUG [Fam2.2 aminoacylation ribozyme variant] | 2.08 | 2.46 |  | 7.85 |
| CUACUUCAACUAAUCGGUCUG [Fam1A.1 aminoacylation ribozyme variant] | 8.63 |  |  | 12.9 |
| AAGUUGGCUAAUAGUCGCAAG [Fam3.1 aminoacylation ribozyme variant] | 2.29 |  |  | 4.46 |
| CCACACUUCAAGCAAUCGCUU [Fam1B.1 aminoacylation ribozyme variant] |  | 2.09 | 2.06 |  |
| CGUCACUUCAAGCAAUCGGUC [Fam1B.1 aminoacylation ribozyme variant] | 11.1 |  |  | 22 |
| AUUCGCCUAGGUCAUAGGGUG [Fam2.2 aminoacylation ribozyme variant] |  | 2.47 | 2.16 | 7.92 |
| CCUCACUUCAAGCAAUCGGGC [Fam1B.1 aminoacylation ribozyme variant] | 3.32 | 2.32 |  |  |
| CCACUUCAAACAAUCGGUAUG [Fam1A.1 aminoacylation ribozyme variant] | 12.7 |  |  | 21.3 |
| CUGCUUCAAACAAUCGGUCAG [Fam1A.1 aminoacylation ribozyme variant] | 23 |  |  | 41.9 |
